Measurements taken from the supplement of paper PMC9170038.

What was measured:
[1] = system: MS2 coat protein; assay: apparent KD of MS2 coat protein, switch OFF state (with FMN for OFF switches, without FMN for ON switches); designed switch direction (-1 OFF switch, 1 ON switch): -1; higher = weaker reporter binding; conditions: FMN input: 0 or 200 uM; Eterna round: R93 (includes R88 designs)
Procedure, shortened: (§1)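 Each design's apparent KD comes from the median of binding-curve fits to its normalised clusters. Those clusters carried RNA switches transcribed on-chip from Illumina sequencing clusters. SNAP-549-labelled MS2 coat protein was titrated onto them in twofold steps (0.7 or 1.5 nM to 3 µM; per step 0.8–1.5 h down to 10–20 min). Conditions were 100 mM Tris-HCl pH 7.5, 80 mM KCl, 4 mM MgCl2, without or with constant ligand.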

[2] = system: MS2 coat protein; assay: apparent KD of MS2 coat protein, switch ON state; designed switch direction (-1 OFF switch, 1 ON switch): -1; higher = weaker reporter binding; conditions: FMN input: 0 or 200 uM; Eterna round: R93 (includes R88 designs)
Procedure, shortened: as §1

| Sequence | apparent KD of MS2 coat protein [1] [nM] | apparent KD of MS2 coat protein [2] [nM] |
| --- | --- | --- |
| CAAAGGUGAGGAUAUACAAAACUAUGACGAAAGUCAUAAAAACAUGAGGAUCACCCAUGUAGAAGGCACCACAA [E2 64% 2] | 23.7 | 31.6 |
| AAAAGACAUGAGGAUCACCCAUGUGAGGAUAUGACGUAAAUAAAGAAAGAAGAAAUCGUCAGAAGGCACACCUA [55%, Disencluded 2, 1] | 63.4 | 29.5 |
| AUGUAGGGAGGAUAUACAUAGAUACAGAUUCAUGUGGAACUACAUGAGGAUCACCCAUGUAGAAGGCCCUAAAA [Mat - Same state - Mayanna Mod - D125] | 117 | 27.4 |
| AGAAAACAUGAGGAUCACCCAUGUGAGGAUAUCGAAAAGAAAAGAAAAGAAAGAAGAAUGAGAAGGCACAAGAA [Khaba] | 28.1 | 29.5 |
| GUCAGCUGAGGAUAUACAGGUGAGGCCGCAUAACAAAAUAUACAUGAGGAUCACCCAUGUAGAAGGCGGAAGAC [Soreramare] | 47.6 | 41.1 |
| AGAAAGUGAGGAUAUACAGAUAAAAAAACGAAAAAAAAUCUGUAGAAGGCACAUGAGGAUCACCCAUGUAAAGA [Mat - Exclusion 4 - Mayanna - D108] | 37.1 | 37.9 |
| AAAAAUGGAGGAUAUACAUGAGGAUCACCCAUGUGUAAAAAAAAUUACACAAAAGAAAGUAGAAGGCCAUAAAG [Mat - Exclusion 3 - Mayanna mod - D108] | 139 | 59.3 |
| AGCAAGUUAGGAUAUGCGAAGUCAGGACACACACUGACGAAGCAGAAGGAACAUGAGGAUCACCCAUGUAAGCA [JR_Exclusion-4 65% 4] | 16.6 | 22 |
| AAAAAUGGAGGAUAUACAUGAGGAUCACCCAUGUGUAACUAUACUAAGCGCUCCUCACGUAGAAGGCCAAAAAA [Gilly Gone Silly 14 - Jieux - Exclusion 3] | 31.4 | 74.1 |
| AUCGAUCGAGGAUAUACAUGAGGAUCACCCAUGUAAAAAAAAAAAAAGUCCUCAGGACGUAGAAGGCGACGCAA [JR_Exc003_Sub401] | 22.3 | 16.6 |
| AAAAAGCGAGGAUAUACAUGAGGAUCACCCAUGUGAAAGUCGAAAAAAAAGACAAAAAGUAGAAGGCGCAAAAA [Banishment 7 - Jieux - Exclusion 3] | 22.8 | 18.3 |
| AACUGACAUGAGGAUCACCCAUGUCAGGAUAUGAUUUGACGAAAAAAAAAAAGUCAUAUCAGAAGGGACAUGGA [Design 81: Sub-opt UB] | 41.5 | 24.7 |
| GUAGUGUGAGGAUAUGAUUAAAAGAAGGGAAAGAGACUGCAUCAGAAGGCACAUGAGGAUCACCCAUGUAUGAA [JR_Exc004_Sub1223] | 45.7 | 34.3 |
| AAAAAGUGAGGAUAUGUCAAAGGUCACGAAAGUGACAAAGGACAGAAGGCACAUGAGGAUCACCCAUGUAAAAA [Fiskers Exclusion 4D1 65% - Early G segment 1] | 43.6 | 37.4 |
| ACGUCGGGAGGAUAUACAUGAGGAUCACCCAUGUAAAGCGGGAAAGACGUUUAGUCGAGUAGAAGGCCUGAAGU [JR_Exc003_Sub1709] | 45.5 | 26.1 |
| AAUAAGUGAGGAUAUGUGAAUAGUAGAUAAGAUUCCCUAAAACAGAAGGCACAUGAGGAUCACCCAUGUAAAUA [JR_Exc004_Sub008] | 24.1 | 26.2 |
| AAGAAGCAAGGAUAUACAUGAGGAUCACCCAUGUAAAAGAAAGAAAAGGGAAAGAAAAGUAGAAGGUGCAAGAA [Menmaatre Seti I] | 27 | 21.6 |
| AAAAGAAAAGGAUAUAAAAAGAAAAGUCAGGAUAUAGGAAACUAGAAGGGACAUGAGGAUCACCCAUGUAAAAG [Meechl Ex4 R2 m2] | 71.9 | 35.9 |
| AGCUAGUCAGGAUAUACGAAAAUGACAGAAGACGUAAGGGAACAUGAGGAUCACCCAUGUAGAAGGGACUAGCA [Diamond 42] | 67.7 | 26.6 |
| AAAUAGUUAGGAUAUACAUGAGGAUCACCCAUGUGGACUUAUGGAGAAUAAUUUAGUGGUAGAAGGGACUAAAA [EX2 Malc#27] | 44.6 | 46.4 |
| AACAUGUUAGGAUAUUCAAGAAAAGAAAAGAAAGAAAAGAAGAAGAAGGAACAUGAGGAUCACCCAUGUAAGAA [EteRNA is fun!] | 27.1 | 33.3 |
| AAAACGGUAGGAUAUACAGUCCGUUGUCGAAUGAUGAAAAGACAUGAGGAUCACCCAUGUAGAAGGACCGAAAA [Bienor] | 138 | 36.5 |

| Sequence | apparent KD of MS2 coat protein [1] [nM] | apparent KD of MS2 coat protein [2] [nM] |
| --- | --- | --- |
| GAAAAGUCAGGAUAUGUACAAAAUAAAAUAAAAAUAAAAGUACAGAAGGGACAUGAGGAUCACCCAUGUAAAAG [Mat - Exclusion 4 - Mayanna - D120] | 54.2 | 72.4 |
| AAAAGGAAAGGAUAUGCAGACUGGGUCACCCAGAUGUAUGAACAUGAGGAUCACCCAUGUAGAAGGUUCAAAAG [Ribiquon] | 26.5 | 36.6 |
| AAGAAACGAGGAUAUACAAAAUAAAAGAAAAGAAAGAAAGAACAUGAGGAUCACCCAUGUAGAAGGCGUAAGAA [Wahibre Ibiau] | 30.3 | 44.6 |
| GCAGGCCAAGGAUAUACAUGAGGAUCACCCAUGUGAGAGAAAAAAGUGAGAAAGAAAAGUAGAAGGUGGUUUGG [salish99-ex3-113] | 114 | 71.7 |
| AACAGUACAGGAUAUACAUGAGGAUCACCCAUGUGGGUAAAAAGAUCGAGAGAUCCAUGUAGAAGGGUACUGGA [JL In the Red 05] | 37.9 | 36.7 |
| AAGAUGUGAGGAUAUGCUGCUCGUCACAAAAGUGAUGAGUAGCAGAAGGUACAUGAGGAUCACCCAUGUAAAGA [JL eternac mod 7] | 20.9 | 32.4 |
| AACAAGACAGGAUAUACAUGAGGAUCACCCAUGUGAGAAUUAAGUGGCGUACCACAAGGUAGAAGGGUCAUGGA [Ruby 3] | 57.6 | 34.2 |
| AAGAGUAGAGGAUAUACAAAGGGAGAGUCGAAAGACUCAAAACAUGAGGAUCACCCAUGUAGAAGGCUACUCAA [Hyphema Seclusion Mod 62% 7] | 746 | 213 |
| AAGAAGCGAGGAUAUACAUGAGGAUCACCCAUGUAAAAGAAAGAAGGGAAAGAGAAAAGUAGAAGGCGCAAGAA [Hedjkheperre-setpenre Takelot II] | 109 | 70.7 |
| AAAAAACAUGAGGAUCACCCAUGUAAGGAUAUGCUCGUGCGAAAAGCACAAAAAAAGAGCAGAAGGUACAAAAA [66%, Wbt, 39] | 33.3 | 15.2 |
| AAAAAACAUGAGGAUCACCCAUGUAAGGAUAUGCAAGCAAGAAGAAAGAACAGAAAAAGCAGAAGGUACACACA [Amethyst 73] | 25 | 22.4 |
| GGAUGUCUAGGAUAUACAUGAGGAUCACCCAUGUGAGAGAAAAAAGUGAGAAAGAAAAGUAGAAGGAGGUGUCG [salish99-ex3-88] | 37.5 | 35.6 |
| CUCUUGUCAGGAUAUUGAAGAAAAGAAAAGAAAGAAAAGAACAAGAAGGGACAUGAGGAUCACCCAUGUAAGAA [EteRNA is fun!] | 60.7 | 74.2 |
| AAGGGACAUGAGGAUCACCCAUGUCAGGAUAUCGGAAAAGGAAAAAAAAAAAAGAAGACGAGAAGGGACACCAA | 26.8 | 28.6 |
| CUCUUGUGAGGAUAUCGAAGAAAAGAAAAGAAAGAAAAGAACGAGAAGGCACAUGAGGAUCACCCAUGUAAGAA [EteRNA is fun!] | 61.8 | 53.1 |
| AAGAAACAUGAGGAUCACCCAUGUGAGGAUAUCGAAAAGAAAAGAAAAGAAAGAAGAACGAGAAGGCACAAAGG [Neferkare (V) Tereru] | 76.2 | 52.7 |
| AAGUCGUGAGGAUAUACAUGGAUAUACAUUCAUGUGGACCUACAUGAGGAUCACCCAUGUAGAAGGCACGAAUA [AJ 49] | 53.5 | 35.2 |
| CGUCCACAUGAGGAUCACCCAUGUUAGGAUAUCUAUACUAAAUACAAAACCCAAGUCAAGAGAAGGAGCAGGGC [Teteeresve] | 12 | 13.9 |
| AAAAAGCUAGGAUAUACGAAAAAAAAGGGUAGAAAAAAAACACAUGAGGAUCACCCAUGUAGAAGGAGCAAAAA [Mat - Exclusion 2 - Tesla mod - D33] | 84.6 | 45.7 |
| AAAAAGUGAGGAUAUGUCAAAGGUCACGAAAGUGACAAAGGACAGAAGGCACAUGAGGAUCACCCAUGUGGAAA [Fiskers Exclusion 4D1 65% - Early + late G segment 3] | 27.6 | 27.3 |
| AAGAACGAAGGAUAUACAUGAGGAUCACCCAUGUAAAAGAAAGAGGGAAAAGAGAAAAGUAGAAGGUCGAAGAA [Ptolemy VIII Euergetes II] | 23.8 | 20.4 |
| GAGAAGUUAGGAUAUACAGCGGGUAGCCGCGGUGGCCUUAGACAUGAGGAUCACCCAUGUAGAAGGAACGAAAA [Tebied] | 12.6 | 28.9 |
